# Experimental data from paper PMC9800568, “The permanently chaperone-active small heat shock protein Hsp17 from Caenorhabditis elegans exhibits topological separation of its N-terminal regions” (The Journal of Biological Chemistry, 2022).
# B1: Hsp17ΔNTR (Hsp17 variant lacking the N-terminal region) (domain or fragment, C. elegans)
# chain: MGDAIDVVNNDQEYNVSVDVSQFEPEELKVNIVDNQLIIEGKHNEKTDKYGQVERHFVRKYNLPTGVRPEQIKSELSNNGVLTVKYEKNQEQQPKSIPITIVPKRN
# notes: Hsp17, C. elegans, from aa position 45 to the C-terminus (ACD and CTR); The full-length protein is modelled to residue 148; also called NTR-truncated variant; truncation variant; source: E. coli BL21 (DE3), tag-free, purified (Sepharose Q FF, Superdex 75 pg)
# Assays:
# [1] = biological target: Hsp17 (small heat shock protein Hsp17 from Caenorhabditis elegans) (C. elegans) (UniProt Q20660); assay: cryo-EM structure; 2.5 mg/ml Hsp17, Titan Krios 300 kV, tetrahedral symmetry, pseudo-atomic model fitted
# [2] = biological target: Hsp17 (small heat shock protein Hsp17 from Caenorhabditis elegans) (C. elegans) (UniProt Q20660); assay: SEC; SEC-HPLC, Superdex 200 Increase 10/300 GL, PBS, 0.5 ml/min, room temperature, 50 μl of 50 μM protein
# [3] = biological target: the molecule itself; assay: as above
molecule,measurement,setting,value
Hsp17 (small heat shock protein Hsp17 from Caenorhabditis elegans) (from UniProt Q20660 1-149) (natural protein),stoichiometry N,[1],24
same,stoichiometry N,[2],24
B1,stoichiometry N,[3],3.5 monomers
